{"source": "paper PMC3633458", "key": {"[1]": {"target": "Escherichia coli-expressed Plasmodium falciparum merozoite surface protein 3 (EcMSP3) (Plasmodium falciparum (FVO strain))", "test": "AUC"}, "[2]": {"target": "Escherichia coli-expressed Plasmodium falciparum merozoite surface protein 3 (EcMSP3) (Plasmodium falciparum (FVO strain))", "test": "SEC-MALS"}}}
{"substance": "Escherichia coli-expressed Plasmodium falciparum merozoite surface protein 3 (EcMSP3) (domain or fragment)", "values": [{"measurement": "stoichiometry N", "setting": "[1]", "value": 2}, {"measurement": "stoichiometry N", "setting": "[2]", "value": 2}]}
